Results published in paper PMC11102832.
Read-outs that look alike come from different tables or passages of the source.

B1: rat Amylin(1-37) (peptide)
peptide: KCNTATCATQRLANFLVRSSNNLGPVLPPTNVGSNTY

Experiments:
[1] = molecular target: AM2 receptor (CLR-RAMP3) (human) (UniProt Q16602)
[2] = molecular target: CGRP receptor (CLR-RAMP1) (human) (UniProt Q16602)
[3] = molecular target: AM1 receptor (CLR-RAMP2) (human) (UniProt Q16602)
[4] = molecular target: AM2 receptor (CLR-RAMP3) (human) (UniProt Q16602); remark: listed apart in the source
[5] = molecular target: CGRP receptor (CLR-RAMP1) (human) (UniProt Q16602); remark: listed apart in the source
[6] = molecular target: AM1 receptor (CLR-RAMP2) (human) (UniProt Q16602); remark: listed apart in the source
[7] = molecular target: AM2 receptor (CLR-RAMP3) (human) (UniProt Q16602); remark: listed apart in the source
[8] = molecular target: CGRP receptor (CLR-RAMP1) (human) (UniProt Q16602); remark: listed apart in the source
[9] = molecular target: AM1 receptor (CLR-RAMP2) (human) (UniProt Q16602); remark: listed apart in the source
[10] = molecular target: calcitonin receptor (CTR) (human)
Sequence of calcitonin receptor (CTR) (human) (P30988 25-474): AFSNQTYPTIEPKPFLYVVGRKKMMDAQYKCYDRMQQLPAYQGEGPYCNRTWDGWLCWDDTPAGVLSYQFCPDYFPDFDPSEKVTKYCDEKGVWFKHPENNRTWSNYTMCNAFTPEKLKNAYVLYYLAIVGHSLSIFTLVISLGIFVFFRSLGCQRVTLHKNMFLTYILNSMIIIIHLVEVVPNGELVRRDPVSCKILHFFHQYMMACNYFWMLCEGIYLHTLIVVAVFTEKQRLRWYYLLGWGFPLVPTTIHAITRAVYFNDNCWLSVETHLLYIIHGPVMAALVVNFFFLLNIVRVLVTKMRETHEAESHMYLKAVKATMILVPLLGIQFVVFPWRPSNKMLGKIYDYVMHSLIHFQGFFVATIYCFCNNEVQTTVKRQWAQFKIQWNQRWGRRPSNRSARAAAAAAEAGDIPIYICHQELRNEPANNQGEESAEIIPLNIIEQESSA

[11] = molecular target: amylin1 receptor (CTR-RAMP1) (human) (UniProt O60894)
Sequence of amylin1 receptor (CTR-RAMP1) (human) (O60894 whole entry, looked up): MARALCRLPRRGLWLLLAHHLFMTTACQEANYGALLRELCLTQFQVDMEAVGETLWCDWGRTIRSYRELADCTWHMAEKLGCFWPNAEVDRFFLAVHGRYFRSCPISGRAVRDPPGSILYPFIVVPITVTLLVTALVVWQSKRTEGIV

Sequence of AM2 receptor (CLR-RAMP3) (human) (Q16602 23-461, chain 1 of 2): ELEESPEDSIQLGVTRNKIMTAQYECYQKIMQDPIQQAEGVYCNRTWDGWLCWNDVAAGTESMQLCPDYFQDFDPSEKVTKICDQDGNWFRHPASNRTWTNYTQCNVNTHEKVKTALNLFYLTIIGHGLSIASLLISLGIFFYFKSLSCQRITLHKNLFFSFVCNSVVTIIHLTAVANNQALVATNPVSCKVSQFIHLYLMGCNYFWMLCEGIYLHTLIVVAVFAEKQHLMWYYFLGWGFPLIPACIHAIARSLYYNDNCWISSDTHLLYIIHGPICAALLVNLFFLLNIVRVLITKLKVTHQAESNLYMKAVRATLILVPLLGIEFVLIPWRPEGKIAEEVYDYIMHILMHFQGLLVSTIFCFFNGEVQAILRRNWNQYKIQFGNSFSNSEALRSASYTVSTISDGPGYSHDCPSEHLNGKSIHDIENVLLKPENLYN
Sequence of AM2 receptor (CLR-RAMP3) (human) (O60896 24-148, chain 2 of 2, further chain): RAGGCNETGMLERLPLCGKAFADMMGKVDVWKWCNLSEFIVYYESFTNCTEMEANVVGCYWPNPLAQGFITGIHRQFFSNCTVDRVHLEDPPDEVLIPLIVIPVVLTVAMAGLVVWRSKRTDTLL
Sequence of AM1 receptor (CLR-RAMP2) (human) (Q16602 23-461, chain 1 of 2): as the sequence (Q16602 23-461, chain 1 of 2) above
Sequence of AM1 receptor (CLR-RAMP2) (human) (O60895 43-175, chain 2 of 2, further chain): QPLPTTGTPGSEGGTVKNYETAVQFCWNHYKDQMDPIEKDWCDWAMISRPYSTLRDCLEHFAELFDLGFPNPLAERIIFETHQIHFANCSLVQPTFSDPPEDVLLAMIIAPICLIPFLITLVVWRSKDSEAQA
Sequence of CGRP receptor (CLR-RAMP1) (human) (Q16602 23-461, chain 1 of 2): as the sequence (Q16602 23-461, chain 1 of 2) above
Sequence of CGRP receptor (CLR-RAMP1) (human) (O60894 27-148, chain 2 of 2, further chain): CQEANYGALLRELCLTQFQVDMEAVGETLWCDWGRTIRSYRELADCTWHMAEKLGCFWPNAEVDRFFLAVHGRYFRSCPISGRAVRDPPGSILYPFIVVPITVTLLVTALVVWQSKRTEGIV

| Molecule | pEC50 of cAMP signaling, end-point concentration-response (CAMYEL BRET, COS-7) [1] | pEC50 of cAMP signaling, end-point concentration-response (CAMYEL BRET, COS-7) [2] | pEC50 of cAMP signaling, end-point concentration-response (CAMYEL BRET, COS-7) [3] | pEC50 of cAMP signaling, end-point concentration-response (CAMYEL BRET, COS-7) [4] | pEC50 of cAMP signaling, end-point concentration-response (CAMYEL BRET, COS-7) [6] | further results |
| --- | --- | --- | --- | --- | --- | --- |
| AM2/IMD(8-47) (peptide) | 9.27 | 9.17 | 8.51 | 9.33 | 8.24 | pEC50 of cAMP signaling, end-point concentration-response (CAMYEL BRET, COS-7) [5]: 8.86 |
| AM2/IMD(8-47) [R23Q/R33K] (peptide) | 7.75 | 7.5 | 6.9 | – | – | – |
| AM(13-38)-AM2(23-33)-AM(39-52) (peptide) | – | – | – | – | – | pEC50 of cAMP signaling, end-point concentration-response (CAMYEL BRET, COS-7) [7]: 8.42; pEC50 of cAMP signaling, end-point concentration-response (CAMYEL BRET, COS-7) [8]: 8.08; pEC50 of cAMP signaling, end-point concentration-response (CAMYEL BRET, COS-7) [9]: 8.26 |
| AM2/IMD(1-47) (peptide) | – | – | – | 8.9 | 7.66 | pEC50 of cAMP signaling, end-point concentration-response (CAMYEL BRET, COS-7) [5]: 7.81 |
| AM2/IMD-53 (peptide) | – | – | – | 8.84 | 7.94 | pEC50 of cAMP signaling, end-point concentration-response (CAMYEL BRET, COS-7) [5]: 8.36 |
| AM2/IMD(8-47) [R33K] (peptide) | 9.01 | 8.54 | 7.8 | – | – | – |
| βCGRP(1-37) (from UniProt P10092 82-118) (peptide) | – | – | – | – | – | pEC50 of cAMP signaling, end-point concentration-response (CAMYEL BRET, COS-7) [10]: 7.79 |
| AM2(8-22)-AM(29-38)-AM2(34-47) (peptide) | – | – | – | – | – | pEC50 of cAMP signaling, end-point concentration-response (CAMYEL BRET, COS-7) [7]: 8.72; pEC50 of cAMP signaling, end-point concentration-response (CAMYEL BRET, COS-7) [8]: 8.09; pEC50 of cAMP signaling, end-point concentration-response (CAMYEL BRET, COS-7) [9]: 7.34 |
| AM2/IMD(8-47) [R23K/R33K] (peptide) | 8.74 | 8.22 | 7.59 | – | – | – |
| AM2/IMD(8-47) [R23K] (peptide) | 9 | 8.51 | 7.62 | – | – | – |
| AM(13-52) (peptide) | 9.48 | – | 9.52 | 9.63 | 9.54 | – |
| B1 | – | – | – | – | – | pEC50 of cAMP signaling, end-point concentration-response (CAMYEL BRET, COS-7) [10]: 7.63; pEC50 of cAMP signaling, end-point concentration-response (CAMYEL BRET, COS-7) [11]: 9.72 |
